Target: the molecule itself
Test: crystal structure; X-ray structure of the co-produced and co-purified (EtfAB/Bcd)4 complex at 3.1 Å, D state; crystallised in 0.1 M calcium acetate, 14 % (v/v) PEG 400, 0.1 M MES, pH 6.5; protein at 20 mg/ml in 10 mM MOPS and 1 mM FAD, pH 7.0

B1: Butyryl-CoA dehydrogenase (Bcd) of the EtfAB/Bcd complex from Clostridium difficile (enzyme)
chain: MDLNSKKYQMLKELYVSFAENEVKPLATELDEEERFPYETVEKMAKAGMMGIPYPKEYGGEGGDTVGYIMAVEELSRVCGTTGVILSAHTSLGSWPIYQYGNEEQKQKFLRPLASGEKLGAFGLTEPNAGTDASGQQTTAVLDGDEYILNGSKIFITNAIAGDIYVVMAMTDKSKGNKGISAFIVEKGTPGFSFGVKEKKMGIRGSATSELIFEDCRIPKENLLGKEGQGFKIAMSTLDGGRIGIAAQALGLAQGALDETVKYVKERVQFGRPLSKFQNTQFQLADMEVKVQAARHLVYQAAINKDLGKPYGVEAAMAKLFAAETAMEVTTKAVQLHGGYGYTRDYPVERMMRDAKITEIYEGTSEVQRMVISGKLLK
notes: Butyryl-CoA dehydrogenase of Clostridium difficile DSM 1296 (ATCC 9689), gene bcd (CD 1054); N-terminal helical domain 1-116, medial β-sheet domain 117-227, C-terminal helical domain 228-378; Tetramer that forms the core of the (EtfAB/Bcd)4 complex; also called Bcd1; Bcd2
stoichiometry N: 4
